Data from patent publication US20220144922A1 (Adimab, published 2022).
Where a chain is given by its changes, count along the chain named.

B1: ADI-15613 (antibody, V domains shown)
VH: EVQLVESGAEVKKPGSSVKVSCKVSGGTFSTYGISWIQQAPGQGLEWVGGIIPMFGTANYAQRFQGRVTLTADEGTNTAYMELNNLRSEDTAMYYCARDRGNNGRYYAMDVWGQGTTVTVSS
VL: DIVLTQTPATLSLSPGERATLSCRASQSVTTYLAWYQQKPGQAPRLLIYDTSNRATGIPARFSGSGSGTDFTLTISSLEPEDFAVYYCQQRNNWPPTFGQGTRLEIK
B2: ADI-15630 (antibody, V domains shown)
VH: QVQLVQSGGGLVKPGGSLRLSCAASGFIFSDYYMVWIRQAPGKGLEWVSYISSSSRYINYADSVKGRFTISRDNAKNSLFLQMNTVRAEDTAVYYCAQGWYSDFWSGPIRIWGQGTLVTVSS
VL: DIQLTQSPSSLSASVGDRVTITCQASQDISNSLNWFQQKPGKAPKLLIFDAYNLETGVPSRFSGSGSGTDFTLTISSLQPEDIATYYCQQNDNLVLTFGGGTKLEIK
B3: ADI-15634 (antibody, V domains shown)
VH: QVQLVQSGAEVKKPGSSVKVSCKASGGTFSSYAISWVRQAPGQGLEWMGGIIPIFGTVNYAQKFQGRVTITADESTSTAYMELSSLRSEDTAVYYCARDRSVTPRYYGMDVWGQGTTVTVSS
VL: EIVMTQSPATLSLSPGERATLSCRASQSVSSYLAWYQQKPGQAPRLLIYDASNRATGIPARFSGSGSGTDFTLTISSLEPEDFAVYYCQHRSNWPPLTFGPGTKLEIK
B4: ADI-15636 (antibody, V domains shown)
VH: EVQLVESGAEVKKPGSSVKVSCKASADTFSSYAISWVRQAPGQGLEWMGGILPILGTANSAQKFRGRVTFTADESTTTAYMELSSLRSEDTAVYYCARLAGPRWPGYGMDVWGQGTLVTVSS
VL: DIQLTQSPSFLSASVGDRVTITCRASQGISSYLAWYQQKPGKAPKLLIYAASTLQSGVPSRFSGSGSGTEFTLTISSLQPEDFATYYCQQLNSFPLTFGGGTKVEIK
B5: ADI-15562 (antibody, V domains shown)
VH: QVQLVQSGAEVKKPGDSLKISCKNAGHTSRIYWIAWVRQMPAKGLEYMGIIFPGDSDTRYSPSFRGQVTISADRSIRTAYLQLSSLKASDTGIYYCATQGLEGAFDYWGQGTLVTVSS
VL: DIRLTQSPSSLSASVGDRVTITCQASQDISNQLNWYQQKPGTAPKLLIYDASFLQTGVPSRFSGSGSGTHFTFTITSLQPEDFATYFCQHYDSFPIFTFGPGTKLEIK
B6: ADI-15661 (antibody, V domains shown)
VH: EVQLVESGGGVVQPGRSLRLSCEASGFNFHNYDIQWVRQAPGKGLEWVALVLFDGSKKYYPHSVKGRFAISRDNSKKTLFLQMNSLRPEDTAVYYCARAPVTGASYYLDYWGQGTLVTVSS
VL: SYVLTQPPSVSVAPGQTARITCGANNIGNKGVHWYQQKPGQAPVLVVYDDDDQPSGIPERFSGSNSGNTATLTISRVEAGDEADYYCQVWDSTSDHLVFGGGTQLTVL
B7: ADI-15664 (antibody, V domains shown)
VH: EVQLVESGAEVKKPGSSVKVSCKASGGTFSSYAISWVRQAPGQGLEWMGGTIPIFGTINYAQKFQGRLTINADASTSTAYMELSSLRSEDTAVYFCARDRTTAVRYYAMDVWGQGTTVTVSS
VL: B3 VL with M4L, A51T, G57D, S92A, P101G, L105V
B8: ADI-15570 (antibody, V domains shown)
VH: QVQLVESGGGVVQPGKSLRLSCAASGFTFSSYPMHWVRQAPGAGLEWMAVISYDGANKYYEDSLKGRFTISRDNSKDTLFLQMNNLRPEDTAVYYCARGRTSHINTPETKWGQGTLVTVSS
VL: EIVLTQSPTLVSASTGDTVTISCRMSQGINGYLAWFQKKPGKAPDLLIYGASTLQDGVPSRFSGSGSGTDFTLTISRLQSEDLATYYCQQYYSLPWTFGQGTKVDIK
B9: ADI-15572 (antibody, V domains shown)
VH: QVQLVQSGAEAKKPGASVKVSCKASGYTFTSYYLHWVRQAPGQGPEWMGIINPGGGSTELSQKFQGRVTLTRDTSTSTVYMEVTSLTSEDTAVYYCARARIQLWAPNYYGMDVWGQGTTVTVSS
VL: B4 VL with Q27H, S30T, K42N, G68E, E70Q, S77G, S93R, F94Y, G100Q
B10: ADI-15579 (antibody, V domains shown)
VH: EVQLVESGGGLVQPGRSLRLSCAAFGFTFDDYAMHWVRQAPGKGLEWVSGISWNSGFIGYADSVKGRFTISRDNAKNSLSLQMNSLRTEDTALYYCAKTDGAVAVDGPFDYWGQGTLVTVSS
VL: EIVLTQSPSSLSASVGDRVTITCRASQSISGYLSWYQQKPGKAPKLLIHSTSSLQSGVPSRFSGSGSGTDFTLTITSLQPEDFATYYCQQSYIAPPTFGQGTKVEIK
B11: ADI-15581 (antibody, V domains shown)
VH: QVQLVQSGAEVKKPGSSMKVSCQASGGPFSTYTISWVRQAPGQGLEWMGGIIPVFGTPNYAQKFHGRVTITADQSTSTAYMELSSLRSEDTAVYYCAGAPYPMDVWGQGTTVTVSS
VL: EIVLTQSPATLSLSPGERATLSCRASQSVASSLAWYQQKPGQAPRLLIYDASNRATGIPARFSGSGSGTDFTLTISSLEPEDFAVYYCQQRTNWQGLSFGGGTKVDIK
B12: ADI-15555 (antibody, V domains shown)
VH: EVQLVESGGALVKPGGSLRLSCVGTGLTFTTAYMSWARQAPGKGLEWVGRIKSKSDGGTTDYPTPVKGRFTISRDESKNTLYLQMNSLKIEDTAVYYCTTDRGITARPIFDSWGQGTLVTVSS
VL: QSVLTQPPSVSGALGRRVTISCTGSSSNIGAGYDVHWYRQLPGTAPKLLIYGNTKRPSGVPDRFSGSKYATSASLAITGLQAEDDADYYCQSYDGGLSGYVFGTGTKLTVL
B13: ADI-15589 (antibody, V domains shown)
VH: QVQLQQWGAGLLKPSETLSLTCAVYGGSFSGYYWGWIRQPPGKGLEWIGEVNHSGTSNYNPSLTSRVTISVDPSKKQLSLKLNSVTAADTAVYYCARAPWYTHAMDVWGQGTTVTVSS
VL: QSVLTQPASVSGSPGQSITISCTRTSSDVGAYSYVSWYQQHPGKAPKLMIYDVNNRPSGVSNRFSGSKSGNTASLTISGLQAEDEADYYCSSYTNSNTLGVFGGGTKLTVL
B14: ADI-15590 (antibody, V domains shown)
VH: EVQLLESGGLVVQPGGSLRLSCAASGFIFDDYTMHWVRQAPGKGLEWISLISWDSLDTYYAGSVQGRFTISRDNSRNSLYLRMNSLRPEDTALYYCAKTKYRGTYYYFDSWGQGTLVTVSS
VL: DIRVTQSPSSLSASVGDRVTITCQASQDISNYLNWYQQKPGKAPKLLIYDASNLETGVPSRFSGRGSGTDFTFTISSLQPEDIATYYCQQYDNLPPVTFGPGTKVEIK

These binders were tested against RSV F protein of subtype A strain A2, on virus (respiratory syncytial virus subtype A …, UniProt P03420 26-574) (assay: cell-based or functional assay).
B1 was tested, and the “Neut IC50 (ug/ml) subtype A” value was 0.862 µg/mL.
With B2 the “Neut IC50 (ug/ml) subtype A” value was greater than 10 µg/mL.
In the case of B3, the “Neut IC50 (ug/ml) subtype A” value is reported as greater than 10 µg/mL.
With B4 the “Neut IC50 (ug/ml) subtype A” value was greater than 10 µg/mL.
In the case of B5, the “Neut IC50 (ug/ml) subtype A” value is reported as 0.01 µg/mL.
For B6, the “Neut IC50 (ug/ml) subtype A” value was 0.021 µg/mL.
With B7 the “Neut IC50 (ug/ml) subtype A” value was greater than 10 µg/mL.
For B8, the “Neut IC50 (ug/ml) subtype A” value was 13.3 µg/mL.
B9 was tested, and the “Neut IC50 (ug/ml) subtype A” value was 9.48 µg/mL.
In the case of B10, the “Neut IC50 (ug/ml) subtype A” value is reported as 8.02 µg/mL.
B11 was tested, and the “Neut IC50 (ug/ml) subtype A” value was 8.25 µg/mL.
With B12 the “Neut IC50 (ug/ml) subtype A” value was 2.19 µg/mL.
With B13 the “Neut IC50 (ug/ml) subtype A” value was 0.876 µg/mL.
B14 was tested, and the “Neut IC50 (ug/ml) subtype A” value was greater than 10 µg/mL.

What follows are binders tested against RSV F protein of subtype B strain 18537, on virus (respiratory syncytial virus subtype B …, UniProt P13843 26-574) (assay: cell-based or functional assay).
For B1, the “Neut IC50 (ug/ml) subtype B” value was 3.04 µg/mL.
For B2, the “Neut IC50 (ug/ml) subtype B” value was 6.64 µg/mL.
For B3, the “Neut IC50 (ug/ml) subtype B” value was greater than 10 µg/mL.
With B4 the “Neut IC50 (ug/ml) subtype B” value was 6.44 µg/mL.
With B6 the “Neut IC50 (ug/ml) subtype B” value was greater than 10 µg/mL.
With B7 the “Neut IC50 (ug/ml) subtype B” value was greater than 10 µg/mL.
With B8 the “Neut IC50 (ug/ml) subtype B” value was greater than 10 µg/mL.
B9 was tested, and the “Neut IC50 (ug/ml) subtype B” value was 6.25 µg/mL.
B10 was tested, and the “Neut IC50 (ug/ml) subtype B” value was greater than 10 µg/mL.
In the case of B11, the “Neut IC50 (ug/ml) subtype B” value is reported as 6.12 µg/mL.
In the case of B12, the “Neut IC50 (ug/ml) subtype B” value is reported as 2.45 µg/mL.
With B13 the “Neut IC50 (ug/ml) subtype B” value was 18.5 µg/mL.
For B14, the “Neut IC50 (ug/ml) subtype B” value was greater than 10 µg/mL.
